Measurements as given in publication PMC5242468.

Legend:
[1] = biological target: β-Glucuronidase (GusA) (E. coli MG1655), P05804; assay: SEC; after 65°C and pH 5 for 20 min (high temperature and acidic pH); data not shown; details: remark: other sources report otherwise
[2] = biological target: β-Glucuronidase (GusA) (E. coli MG1655), P05804; assay: SEC; gel filtration of the freshly purified enzymes against reference proteins (thyroglobulin, aldolase, albumin, ovalbumin, chymotrypsinogen A); results name a Superose 12 10/300 column, methods name a ZORBAX GF-250 HPLC column, 130 mM NaCl/20 mM Na2HPO4 pH 7.0, 23°C; details: remark: other sources report otherwise

stoichiometry N [1]: 4
stoichiometry N [2]: 4
B1: β-Glucuronidase (GusA), P05804 1-603 (enzyme)
chain: MLRPVETPTREIKKLDGLWAFSLDRENCGIDQRWWESALQESRAIAVPGSFNDQFADADIRNYAGNVWYQREVFIPKGWAGQRIVLRFDAVTHYGKVWVNNQEVMEHQGGYTPFEADVTPYVIAGKSVRITVCVNNELNWQTIPPGMVITDENGKKKQSYFHDFFNYAGIHRSVMLYTTPNTWVDDITVVTHVAQDCNHASVDWQVVANGDVSVELRDADQQVVATGQGTSGTLQVVNPHLWQPGEGYLYELCVTAKSQTECDIYPLRVGIRSVAVKGEQFLINHKPFYFTGFGRHEDADLRGKGFDNVLMVHDHALMDWIGANSYRTSHYPYAEEMLDWADEHGIVVIDETAAVGFNLSLGIGFEAGNKPKELYSEEAVNGETQQAHLQAIKELIARDKNHPSVVMWSIANEPDTRPQGAREYFAPLAEATRKLDPTRPITCVNVMFCDAHTDTISDLFDVLCLNRYYGWYVQSGDLETAEKVLEKELLAWQEKLHQPIIITEYGVDTLAGLHSMYTDMWSEEYQCAWLDMYHRVFDRVSAVVGEQVWNFADFATSQGILRVGGNKKGIFTRDRKPKSAAFLLQKRWTGMNFGEKPQQGGKQ
